Assay results: patent US20110076303A1

Target: Foxn1 having a Flag tag (expressed from the Foxn1 expression vector, CMV promoter, in mouse epidermal cells)
Test: cell-based or functional assay

expression level of luciferase (reporter with a Foxn1 binding region upstream of an SV40 minimum promoter), relative to Foxn1 only = 1: 5 fold
Substance: AFF-4 having a C-Myc tag (expressed from the AFF-4 expression vector, CMV promoter, in mouse epidermal cells)
